In US20180071385A1 (LEIDOS, published 2018):

Molecular target: human PD-1 on Jurkat cells (human, UniProt Q15116 25-288)
Experiment: cell-based or functional assay

Chain of human PD-1 on Jurkat cells (Q15116 25-288): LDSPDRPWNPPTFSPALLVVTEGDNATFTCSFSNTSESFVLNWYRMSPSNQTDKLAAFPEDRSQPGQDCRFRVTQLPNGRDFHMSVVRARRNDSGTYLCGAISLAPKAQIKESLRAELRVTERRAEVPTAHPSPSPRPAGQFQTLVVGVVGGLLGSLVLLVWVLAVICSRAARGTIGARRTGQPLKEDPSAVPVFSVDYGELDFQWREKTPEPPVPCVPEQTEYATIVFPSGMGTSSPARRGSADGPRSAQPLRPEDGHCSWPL

B1: peptide QP20 (peptide)
peptide: QTRTVPMPKIHHPPWQNVVP
  EC50 (read off the curve), Fold Inhibition of RLU: ~8 µM
